From patent US20140341937A1 (US Dept. of Health and Human Services, published 2014)

Assays:
[1] = target: T1, CCR8 (human, UniProt P51685 1-355); assay: flow cytometry on receptor-expressing cells
T1 construct: whole, on cells; also called human CCR8; HEK/CCR8

[2] = target: T2, CCR4 (human, UniProt P51679 1-360); assay: flow cytometry on CEM cells, anti-EDN antibody detection
T2 construct: whole, on cells; also called human CCR4; CCR4 on CEM cells
T2 sequence (looked up): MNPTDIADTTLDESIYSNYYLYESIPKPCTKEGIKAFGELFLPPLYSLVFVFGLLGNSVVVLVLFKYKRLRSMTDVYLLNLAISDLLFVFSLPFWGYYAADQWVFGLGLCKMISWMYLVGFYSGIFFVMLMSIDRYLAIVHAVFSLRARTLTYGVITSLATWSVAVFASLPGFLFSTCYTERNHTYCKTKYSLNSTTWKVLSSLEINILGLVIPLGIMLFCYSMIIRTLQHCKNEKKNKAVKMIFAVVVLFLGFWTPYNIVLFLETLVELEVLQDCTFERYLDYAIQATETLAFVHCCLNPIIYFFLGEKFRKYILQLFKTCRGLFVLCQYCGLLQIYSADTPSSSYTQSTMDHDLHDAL

T1 sequence (P51685 whole entry): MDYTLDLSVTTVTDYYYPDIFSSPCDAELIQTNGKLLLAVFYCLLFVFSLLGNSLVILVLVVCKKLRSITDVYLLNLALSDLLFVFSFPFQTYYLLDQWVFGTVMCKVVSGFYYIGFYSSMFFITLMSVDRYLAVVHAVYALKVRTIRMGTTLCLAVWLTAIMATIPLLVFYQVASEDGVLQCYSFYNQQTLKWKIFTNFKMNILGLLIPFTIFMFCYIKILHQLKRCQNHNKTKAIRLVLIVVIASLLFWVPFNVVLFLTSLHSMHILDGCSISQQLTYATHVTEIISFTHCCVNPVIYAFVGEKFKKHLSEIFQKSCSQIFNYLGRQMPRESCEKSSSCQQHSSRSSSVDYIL

B1: eosinophil-derived neurotoxin (EDN) (enzyme, human, UniProt P10153 28-161, looked up)
chain: KPPQFTWAQWFETQHINMTSQQCTNAMQVINNYQRRCKNQNTFLLTTFANVVNVCGNPNMTCPSNKTRKNCHHSGSQVPLIHCNLTTPSPQNISNCRYAQTPANMFYIVACDNRDQRRDPPQYPVVPVHLDRII
notes: Unfused control protein; also called EDN alone; toxin alone
binding result [1]: no binding
binding result [2]: no binding (tested: 50 µg/ml)
